Data set [1] deals with the molecule itself. Put plainly: size exclusion, Superdex 75 (self-association). As for the experimental part: GST-based constructs were expressed in E. coli strain BL21 DE3 RIL (Stratagene). Unlabeled proteins were produced by overnight expression at 17° C. in LB medium containing 1 mM IPTG and 200 μg/mL ampicillin. Isotope-labeled proteins were produced by overnight expression at 17° C. in M9 supplemented with ¹⁵NH₄Cl, ¹³C-labeled D-glucose and ²H water as previously described by Devany et al., Protein Sci. 13, 2252-259 (2004). Proteins were purified by sonicating cell pellets in lysis buffer [100 mM NaCl, 50 mM Na₂HPO₄/NaH₂PO₄ (pH7.0), protease inhibitor (Roche)], separating the soluble (supernatant) and insoluble (pellet) fractions by centrifugation (12,110 g, 20 min, 4° C.), binding to glutathione sepharose (GE healthcare), washing with lysis buffer and eluting with PreScission protease (GE Healthcare) in 1 mM DTT, 50 mM Na₂HPO₄/NaH₂PO₄ [pH7.4] and, finally, concentrating with Centricon filters (Millipore). Solubility was monitored by SDS PAGE, coomassie blue staining and/or immunoblotting as discussed above. […] GST and lysozyme were purchased from Sigma.
(Size exclusion chromatography separates by hydrodynamic size, large species first.)

Data set [2] deals with the molecule itself. The experiment in a line: sedimentation velocity analytical ultracentrifugation (self-association). As for the experimental part:
Sedimentation Velocity Analytical Ultracentrifugation Experiments. A3G-2K3A was diluted to 0.15, 0.4, 0.8 or 1.2 mg/ml in a buffer containing 50 mM Na₂HPO₄/NaH₂PO₄ [pH7.4], 0.005% tween 20, 5 mM dithiothreitol and 50 μM ZnCl₂. Samples were then sedimented using a 4-hole rotor at 20° C. and 55,000 rpm. The rotor and cells were preequilibrated at 20° C. and the samples were kept on ice during protein preparation and dilution. Synthetic boundary cells were loaded with 430 μL of buffer and 420 μL of the appropriate sample solution. The cells were placed in the rotor and accelerated to 24,000 rpm while monitoring the transfer of the excess buffer in each cell. Subsequently, the rotor was stopped and then gently inverted to thoroughly mix the contents of the cells. The rotor was then equilibrated under vacuum at 20° C. and after a period of ˜1 hour at 20° C. the rotor was accelerated to 55,000 rpm. Interference scans were acquired at 1 minute intervals for 6 hours. The data for each loading concentration was analyzed using the program DcDt+ (version 2.0.7). See Philo, Anal. Biochem. 354, 238-246 (2006); and Philo, Anal. Biochem. 279, 151-163 (2000). The complete data set for A3G-2K3A was analyzed using Sedphat v4.4b using the model of a hybrid local continuous distribution and global discrete species. Schuck, Anal. Biochem. 320, 104-124 (2003). […]

B1: A3G198-384 (enzyme)
chain: DPPTFTFNFNNEPWVRGRHETYLCYEVERMHNDTWVLLNQRRGFLCNQAPHKHGFLEGRHAELCFLDVIPFWKLDLDQDYRVTCFTSWSPCFSCAQEMAKFISKNKHVSLCIFTARIYDDQGRCQEGLRTLAEAGAKISIMTYSEFKHCWDTFVDHQGCPFQPWDGLDEHSQDLSGRLRAILQNQEN
notes: also called CTD
On to B1, for which the binding result in data set [1] is recorded as “no binding (tested: 1 mg (approx. 1 mL))”.

B2: A3G-2K3A (enzyme)
chain: DPPTFTFNFNNEPWVRGRHETYLCYEVERMHNDTWVKLNQRRGFLANQAPHKHGFLEGRHAELCFLDVIPFWKLDLDQDYRVTCFTSWSPCFSCAQEMAKFISKNKHVSLCIKTARIYDDQGRAQEGLRTLAEAGAKISIMTYSEFKHCWDTFVDHQGAPFQPWDGLDEHSQDLSGRLRAILQNQEN
notes: released from the GST fusion with PreScission protease
As for B2, the binding result in data set [2] is recorded as “no binding (tested: 0.15, 0.4, 0.8 or 1.2 mg/ml)”.

(Values after patent US20090269831A1 (REGENTS OF THE UNIVERSITY OF MINNESOTA, published 2009).)
